Substitutions are numbered along the chain they refer to. Names may count otherwise.
B1: γ subunit of the E. coli clamp loader (residues 1-373) (domain or fragment, UniProt P06710 1-373, looked up)
chain: MSYQVLARKWRPQTFADVVGQEHVLTALANGLSLGRIHHAYLFSGTRGVGKTSIARLLAKGLNCETGITATPCGVCDNCREIEQGRFVDLIEIDAASRTKVEDTRDLLDNVQYAPARGRFKVYLIDEVHMLSRHSFNALLKTLEEPPEHVKFLLATTDPQKLPVTILSRCLQFHLKALDVEQIRHQLEHILNEEHIAHEPRALQLLARAAEGSLRDALSLTDQAIASGDGQVSTQAVSAMLGTLDDDQALSLVEAMVEANGERVMALINEAAARGIEWEALLVEMLGLLHRIAMVQLSPAALGNDMAAIELRMRELARTIPPTDIQLYYQTLLIGRKELPYAPDRRMGVEMTLLRALAFHPRMPLPEPEVPRQ
notes: γ subunit of the E. coli clamp loader, truncated form, residues 1-373; Stands for the single γ subunits within the γ-complex; also called γ protein; B, C and D subunits; source: E. coli BLR21(DE3), purified (HisTrap, Prescission Protease, HisTrap flowthrough); not shown: His6, N-terminal, cleaved
B2: γ-K141A (domain or fragment, E. coli, UniProt P06710 1-373, looked up)
chain: B1 chain with K141A
notes: γ subunit of the E. coli clamp loader with K141A; insert bought from Twist Bioscience; the range 1-373 is stated for the γ subunit in general; The limits 1-373 are not repeated for the mutant itself; source: E. coli BLR21(DE3), purified (Nickel NTA agarose, Prescission Protease, HisTrap); not shown: His6, N-terminal, cleaved

What was measured:
[1] = target: the molecule itself; test: cryo-EM structure; 2.5 μM clamp loader and 2.2 μM sliding clamp, 1 mM ADP·BeFx, cross-linked with 1 mM BS3; 25 mM HEPES-NaOH pH 8.0, 200 mM NaCl, 4 mM MgCl2, 1 mM TCEP; Semi-Open and Fully-Open states
[2] = target: the molecule itself; test: reconstitution and co-elution on anion exchange (HiTrap Q); purified γ (WT or K141A), δ and δ′ (WT or K130A) combined 2.5:1:1, dialysed into Buffer Q-A (50 mM Tris pH 7.5, 50 mM NaCl, 10% glycerol, 2 mM DTT) overnight at 4 °C, eluted from a HiTrap Q column with a NaCl gradient; fractions with the intact complex pooled

Row | Protein | binding result [1] | binding result [2]
1 | B1 | binds | –
2 | B2 | – | binds
